The record followed here is PMC11401214, “A new generation of nanobody research tools using improved mass spectrometry-based discovery methods” (The Journal of Biological Chemistry, 2024).

Some targets named below: rabbit IgG (rabbit); goat IgG (goat); mouse IgG (mouse).
Experiment in all cases: SPR; Biacore 8K; antigen immobilised on CM5 chip by amine coupling at 1 ug/ml (tdTomato) or 5 ug/ml (GST, IgGs) in 10 mM sodium acetate pH 5.5; nanobody injected in single-cycle kinetics at 0.1-10 nM; 20 mM Na-Hepes pH 7.4, 150 mM NaCl, 0.05% Tween 20; Langmuir 1:1 model, RIgG-1 and GIgG-4 fit to a two-step binding model
Common to all, as to parameters: kon of step 1 (2-state binding model) / koff of step 1 (2-state binding model) / koff of step 2 (2-state binding model): unit not given here
A general note: In SPR one partner is held on a chip, and binding of the other changes the refractive index at the surface.

Where only a bound is given, the exact number is not on record here.

B1: LaRIgG-7 (VHH)
VHH: DVQLVESGGGLVQTGGSLRLSCAASGRTFTTYDLAWFRQAPGKERECVAAVSRIGTTYYPDSVKGRFTISTDTAQNTVYLQMNSLKPEDTAVYYCASAKFGSRWIRAKTSEGNYDDWGRGTQVTVS
Take B1: the Kd (in general, the concentration at which binding is half-saturated) with rabbit IgG (rabbit) was 0.053 nM.

B2: LaRIgG-1 (VHH)
VHH: QVQLAESGGGLVQPGGSLRLSCVVSGGTFGRYDMGWFRQAPGKEREFVAAISREVTTNYGDSVRGRFTISRDNAENTVHLLMNSLKPEDTAVYYCAADDAHRYSGTYYLSQDFRYTYWGQGTQVTVS
As to B2, in the experiment with rabbit IgG (rabbit), the Kd worked out at 0.36 nM, the koff of step 1 (2-state binding model) turned out to be 0.0034, the koff of step 2 (2-state binding model) was 0.00026 and the kon of step 1 (2-state binding model) amounted to 890000. Also, the kon of step 2 (2-state binding model) with rabbit IgG (rabbit) stood at 0.0026 s⁻¹.

B3: LaGIgG-4 (VHH)
VHH: DVQLVESGGGLVQAGGSLRLSCAASGITFSRSTMGWHRQAPGKRRELVASINAVGSTNYVPSVKGRFTISRDNAKNTVTLQMNSLEPEDTGVYYCVSDPYDDPRRYWGPGTQVTVS
B3: in the experiment with goat IgG (goat), the Kd came out at 0.82 nM, the koff of step 1 (2-state binding model) is 0.011, the koff of step 2 (2-state binding model) was 0.00033 and the kon of step 1 (2-state binding model) amounted to 2.2e+06. In addition, the kon of step 2 (2-state binding model) with goat IgG (goat) stood at 0.0018 s⁻¹.

B4: LaMIgG-9 (VHH)
VHH: QVQLVESGGGLVQAGGSLSLSCATSGRTGDLYAMAWFRQAPGAEREFVATVTAIGGATYYADSVKGRFTISASYARNMVYLQMNSLKPEDSAVYYCAASMKRVWPLHRSDEAEYWGQGTQVTVS
Molecule B4 had a Kd with mouse IgG (mouse) of 0.6 nM.

B5: LaMIgG-8 (VHH)
VHH: QVQLVESGGGLVQAGGSLKLSCATSGFTFSTSVMNWFRQAPGKERDMVAFINPSGSTNYVDSVKGRFTISRDSTKNTVYLQMNSLKPEDTAVYYCQTRLLVDSGWRDYWGQGTQVTVS
The molecule B5 came in with a dissociation constant Kd with mouse IgG (mouse) of 1.2 nM.

B6: LaMIgG-14 (VHH)
VHH: QVQLVESGGGLVQAGGSLRLSCAASGFTFSTSVMNWFRQAPGKEREMVAFINPSGSTHYVDSVKGRFTISRDSAKNTVYLQLNSLKPEDTAVYYCQTRLFVGAGWRDYWGQGTQVTVS
Take B6: the Kd with mouse IgG (mouse) was found to be 0.21 nM.

B7: LaGIgG-12 (VHH)
VHH: QVQLVESGGGLVQAGGSLRLSCSASGRTLSTYAMGWFRQAPGKEREFVAVISRSGGSTHYVESVKGRFTIVRDNAKNTVYLQMDSLKPEDTAVYYCAVPKYTDYALSPEDFGSWGQGTQVTVS
In turn, B7 registered a Kd in the experiment with goat IgG (goat) of 0.49 nM.

B8: LaMIgG-5 (VHH)
VHH: DVQLVESGGGSVQAGGSLRLSCAASGFIFSKDVMNWFRQAPGKERELVAFINPSGTTHYVDSVKGRFTISRDNVKSTVYLQMNDLKPDDTAVYYCQTRKFVGTTWRDYWGQGTQVTVS
Molecule B8 displayed a Kd with mouse IgG (mouse) of 0.42 nM.

B9: LaRIgG-2 (VHH)
VHH: QVQLVESGGGLVQAGGSLRLSCVASGGTFSDWPKGWFRQAPGKEREFVAAINWNGSGTTYADSVKGRFTISRDNAKNAVYLEMNSLKPEDTAVYSCASTFGGIRSVGTNDYWGRGTQVTVS
B9 returned a Kd with rabbit IgG (rabbit) of less than 0.014 nM.
